From patent publication US9371374
Changes are numbered by the printed parent chain.

T1: HCV Core1-169 (HCV-1), P26664
T1 chain: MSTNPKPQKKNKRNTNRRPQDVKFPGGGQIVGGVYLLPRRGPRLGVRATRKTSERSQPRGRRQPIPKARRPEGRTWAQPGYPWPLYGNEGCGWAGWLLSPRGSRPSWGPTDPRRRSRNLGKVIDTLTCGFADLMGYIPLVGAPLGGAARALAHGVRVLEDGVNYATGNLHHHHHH

B1: HCV 208A-874 (antibody, V domains shown)
VH: QVQLQQPGAELVKPGASVKLSCKASGYTLSSYWMHWVKQRPGQGLEWIGEIHPSDSYTSYNQKFKDKATLTVDKSSSTAYMQLSSLTSEDSAVYYCARGGYYRYDEFAYWGQGTLVTVSA
VL: DIVMTQSHKFMSTSIGDRVSITCKASQNVSPAVAWYQQKPGQSPKLLIYSASSRYTGVPDRFTGSGSGTAFTFTISSVQAEDLAVYFCQQHFSTPWTFGGGTMLEIKR
B2: HCV 208A-983 (antibody, V domains shown)
VH: QGQMQQSGAELVKPGASVKLSCKTSGFTFSSSYFSWLKQKPGQSLEWIAWIYAGTGNTIYNQKFTDKAQLTVDTASSTAFMQLSSLTIEDSAIYYCAISGTGFTYWGQGTLVTVSA
VL: DVLMTQTPLSLPVNLGDQASISCRSSQSLLHSNGNTYLEWFLQKPGQSPKLLIYNVSNRFSGVPDRFSGSGSGTDFTLKISRVEAEDLGVYYCFQGSHVPFTFGSGTKLAIKR
B3: HCV 208B-174 (antibody, V domains shown)
VH: EVKLEESGGGLVQPGGSMKLSCVASGFSFSSYWMSWVRQSPEKGLDWVAEIRLRSDNYATHYAESVKGRFTISRDDSISRLYLQMNTLRAEDTGIYYCTWMTYWGQGTLVTVSA
VL: QNVLTQSPAIMSASPGEKVTMSCSASSSVTYMFWYQLKPESSPRLLIYDTSNLASGVPVRFSGSGSGTSYSLTISRMEAEDAATYYCQEWSSYPLTFGAGTKLDLKR
B4: HCV 208B-515 (antibody, V domains shown)
VH: QVQLQQPGAELVKPGASLKLSCRASGYTFTSYWIHWVKQRPGQGLEWIGEIDPSDSYTNYNQKFKGKATLTVDKSSRAAYMQLSSLTSEDSAVYYCARHYYGVFDSWGQGTKLTVSS
VL: QIVFTQYPAIMSASLGERVTMTCTASSSVTSSYLHWFQQKPGSSPKLWIYSTSNPGSGVPARFSGRGSGTSYSLSISSMEAEDAATYYCLQFHRSPWTFGGGTKLEIRR
B5: HCV 208B-517 (antibody, V domains shown)
VH: QVQLKQSGPGLVQPSQSLSITCTVSGFSLITHGVHWVRQSPGKGLEWLGVIWSGGSTDYNAAFISRLSISKDTSKSQVFLKMSSLQADDTAIYYCARNGGATAFDYWGQGTTLTVSS
VL: DIVMTQSPATLSVTPGDRVSLSCRASQSISDYLHWYQQKSHESPRLLIKYASQSISGIPSRFRGSGSGSHFTLSINSVEPEDVGVYYCQNGHSFPWTFGGGTKLEIKR
B6: HCV 208B-547 (antibody, V domains shown)
VH: QVQLQQSGAELAKPGASVKMSCKASGYTFTSNKMHWAKQRPGQGLEWIGYIDPSSGYTEYNQKIKDKATLTADKSSSTAYMQLSSLTSEDSAVYYCTNFAYWGQGTLVTVSA
VL: EVVLTQSPAITAASLGQKVTITCRASSSVSYMHWYRQKSGTSPQPWIYEISTLASGVPTRFRASGSGTSYSLTISSMEAEDAAIYYCQQWNYPLTFGAGTKLELKR
B7: HCV 208B-556 (antibody, V domains shown)
VH: QLQQSGPVLVKPGASVMISCKTSGYTFTENAMHWVKQSHGKSLEWIGGVNPNNGDTIFNQKFKGKATLTVDKSSSTAFMEFRSLTSEESTVYYCVRRELDFFDYWGQGTSVTVSS
VL: DIVLTQSPASLAVSLGQRATISCRASQSVSTSRYSYMHWYQQKPGQPPKLLIKYASNLESGVPARFSGSGSGTDFTLNIHPVAEEDTATYYCQHSWEFPFTFGSGTKLEIKR
B8: HCV 208B-560 (antibody, V domains shown)
VH: EVQLQQSGPELEKPGASVKISCKTSGYTFTEYAMHWVKQSHGMSLEWIGGINPSNGNAIYNQIFKDKATLTVDRSSSTAYMGLRSLTFGDSGVYFCVRRQLDFFDYWGQGASLTVSS
VL: B7 VL with L4V, M37L, A83G
B9: HCV 208B-589 (antibody, V domains shown)
VH: B6 VH with E10G, S31A, Q62H, K65Q, K74T, S88F
VL: DIVMTQTPLTLSVTIGQPASISCKSSQSLLFTNGKTYLNWFLQRPGQSPKRLIYLLSKLDSGVPDRFSGSGSGTDFTLKISRVEAEDLGVYYCLQSTYFPLTFGAGTKLELKR
B10: HCV 208B-612 (antibody, V domains shown)
VH: EVQLQQSGPELVKPGASVKMSCKASGYRFTSYVMHWVRQKPGQGLEWIGYIDPHNDDTKYSEKFRGKATLTSDKSSTTAYMELSSLTSEDSAVYYCVRYSYDRDYSPMDYWGQGTSVTVSS
VL: QIVLTQSPTLMSASPGEKVTMTCSASSTVTYIYWYQQKPGSSPRLWMYDTFNLVSGVPARFSGSRSGTSYFLTISSMEGEDAATYYCQQYSDSPYTFGGGTKLEIKR
B11: HCV 208B-672 (antibody, V domains shown)
VH: EVKLVESGGSLVQPGGSLKLSCAASGFNFNTYAMSWVRQTPEKRLEWVAYISNGGGNTYYVDTVKGRFTISRDNAKNTLYLRMSSLKSEDTAMYYCARHGLYWGYSMDYWGQGTSVTVSS
VL: DIQMTQSPSSLSASLGERVSLTCRASQDIGGSINWLQQEPDGTIKRLIYATSSLDSGVPKRFSGSRSGSDYSLTISSLESEDFVDYYCLQYASSPPTFGGGTKLEIKR
B12: HCV 208B-793 (antibody, V domains shown)
VH: EVKLVESGGGLVQPGGSLKLSCAASGFTFSSYAMSWVRQTPERRLEWVTYISNGGGSTYYSDTVKGRFTFSRDNAKNTLYLQMSSLKSEDTAMYYCARHGLGRTGFASWGQGTLVTVSA
VL: DIVMTQSHKFMSTSVGDRVSITCKASQDVGTAVAWYQQKPGQSPKLLIYWASTRHTGVPDRFTGSGSGTDFTLTISNVQSEDLADYFCQQYSNYLTFGAGTKLEVKR
B13: HCV 208B-822 (antibody, V domains shown)
VH: QVQLKQSGPGLVQPSQSLSITCTVSGFSLITYGVHWVRQSPGKGLEWLGVIWGGGSTGYNAAFVSRLNITKDNSKSQVFFKMNSLQPDDTAIYYCARNGGATVFDYWGQGTTLTVSS
VL: B5 VL with S28T, R63S
B14: HCV 208B-826 (antibody, V domains shown)
VH: DVQLVESGGGLVQAGGSRKLSCAASGFPFSSFGMHWVRQAPEKGLEWVASISSRTSKIYYADNLKGRFTISRDNPKNTLFLQMTSLGSEDTAMYYCVRSVFGNSYWFFDVWGAGTTVTVSS
VL: DIVLTQSPATLSVTPGDRVSLSCRASQRIYNYLHWYQQKSHESPRLLTKYASQSISGIPSRFSGSGSGTDFILTINSVETEDFGMYFCQQSNSWPLTFGAGTKLELRR
B15: HCV 208B-862 (antibody)
chain 1: DVQLQESGPGLVKPSQSLSLTCTVTGYSITSDYAWNWIRQFPGNKLEWMGYISYSGTTVYSPSLKSRISITRDTSKNQFFLQLNSVTIEDSATYYCGGNYWGQGTLVTVSA
chain 2: DVVLTQTPLSLPLSLGDQASISCRSSQTLLHSDGDTYLHWYLQKPGQSPKLLIYKLSNRFSGVPDRFSGSGSGTDFTLKISRVEAEDLGVYFCSQSTHVPYTFGGGTKLEIKR
B16: HCV 208B-911 (antibody, V domains shown)
VH: QVHLQQPGAELVRPGVSVKLSCKASGYTFTTYSINWMKQRPGQGLEWIGNIYPSTSHTNYNQKFRDKATMTVDKSSSTAYMQLSSPTSEDSAVYYCTINAYSMDYWGQGTSVTVSS
VL: QIVLTQSPEIMSASPGEKVTITCSASSSVSFMYWFQQKPGTSPKLWIYITSNLASGVPTRFSGSGSGTSYSLTISRMEAEDAATYYCQQRSSFPYTFGGGTKLEMKR

Each binder was assayed against HCV Core1-169 (HCV-1) (UniProt P26664) (assay: SPR sandwich, C11-3 capture). Conditions: not given.

| Binder | expected % binding [%] |
| --- | --- |
| B1 | < 1 |

The binders below were run against HCV Core1-169 (HCV-1) (UniProt P26664) (assay: SPR sandwich, C11-7 capture). Conditions: not given.

| Binder | expected % binding [%] |
| --- | --- |
| B1 | < 1 |

The binders below were run against HCV Core1-169 (HCV-1) (UniProt P26664) (assay: SPR sandwich, C11-9 capture). Conditions: not given.

| Binder | expected % binding [%] |
| --- | --- |
| B1 | < 1 |

Each binder was assayed against biotinylated HCV core peptide 134-154 (Peptide 1) (HCV-1) (assay: EIA, captured mAb). Conditions: not given.

| Binder | Reactivity (OD492) [OD] |
| --- | --- |
| B1 | 0.05 |
| B2 | 3.03 |
| B3 | 0.08 |
| B4 | 0.51 |
| B5 | 0.1 |
| B6 | 0.12 |
| B7 | 0.13 |
| B8 | 0.11 |
| B9 | 0.27 |
| B10 | 3.05 |
| B11 | 0.08 |
| B12 | 0.09 |
| B13 | 0.08 |
| B14 | 0.53 |
| B15 | 0.21 |
| B16 | 0.09 |

The binders below were run against biotinylated HCV core peptide 141-161 (Peptide 2) (HCV-1) (assay: EIA, captured mAb). Conditions: not given.

| Binder | Reactivity (OD492) [OD] |
| --- | --- |
| B1 | 0.73 |
| B2 | 0.4 |
| B3 | 1.26 |
| B4 | 0.13 |
| B5 | 0.41 |
| B6 | 0.08 |
| B7 | 3.07 |
| B8 | 3.9 |
| B9 | 0.1 |
| B10 | 3.04 |
| B11 | 2.79 |
| B12 | 0.72 |
| B13 | 1.35 |
| B14 | 1.35 |
| B15 | 3.28 |
| B16 | 0.09 |

Each binder was assayed against biotinylated HCV core peptide 151-171 (Peptide 3) (HCV-1) (assay: EIA, captured mAb). Conditions: not given.

| Binder | Reactivity (OD492) [OD] |
| --- | --- |
| B1 | 0.06 |
| B2 | 0.05 |
| B3 | 0.07 |
| B4 | 0.06 |
| B5 | 0.7 |
| B6 | 2.9 |
| B7 | 0.18 |
| B8 | 0.14 |
| B9 | 2.85 |
| B10 | 0.15 |
| B11 | 0.1 |
| B12 | 0.09 |
| B13 | 0.07 |
| B14 | 0.08 |
| B15 | 0.1 |
| B16 | 0.71 |

Each binder was assayed against HCV Core1-169 (HCV-1) (UniProt P26664) (assay: SPR sandwich, C11-14 capture). Conditions: not given.

| Binder | expected % binding [%] |
| --- | --- |
| B1 | < 1 |

Target: T1, HCV Core1-169 (HCV-1), P26664
Test: SPR sandwich, C11-3 capture
Conditions: remark: other sources report otherwise

| Binder | expected % binding [%] |
| --- | --- |
| B2 | < 1 |
| B3 | 1.6 |

Target: T1, HCV Core1-169 (HCV-1), P26664
Test: SPR sandwich, C11-7 capture
Conditions: remark: other sources report otherwise

| Binder | expected % binding [%] |
| --- | --- |
| B2 | < 1 |
| B3 | 1.5 |

Target: T1, HCV Core1-169 (HCV-1), P26664
Test: SPR sandwich, C11-9 capture
Conditions: remark: other sources report otherwise

| Binder | expected % binding [%] |
| --- | --- |
| B2 | < 1 |
| B3 | < 1 |

Target: T1, HCV Core1-169 (HCV-1), P26664
Test: SPR sandwich, C11-14 capture
Conditions: remark: other sources report otherwise

| Binder | expected % binding [%] |
| --- | --- |
| B2 | < 1 |
| B3 | 1.6 |
